Experiments:
[1] = target: T1, human 5T4 on cells (human, UniProt Q13641 32-420); experiment: flow cytometry, CHO-K1/human 5T4 cells (FIG. 4)
T1 construct: Human 5T4 on transfected cells (CHO-K1, CT26, B16) or endogenous on human tumour lines; the cell line is named under assay; also called trophoblast glycoprotein; TPBG
T1 sequence: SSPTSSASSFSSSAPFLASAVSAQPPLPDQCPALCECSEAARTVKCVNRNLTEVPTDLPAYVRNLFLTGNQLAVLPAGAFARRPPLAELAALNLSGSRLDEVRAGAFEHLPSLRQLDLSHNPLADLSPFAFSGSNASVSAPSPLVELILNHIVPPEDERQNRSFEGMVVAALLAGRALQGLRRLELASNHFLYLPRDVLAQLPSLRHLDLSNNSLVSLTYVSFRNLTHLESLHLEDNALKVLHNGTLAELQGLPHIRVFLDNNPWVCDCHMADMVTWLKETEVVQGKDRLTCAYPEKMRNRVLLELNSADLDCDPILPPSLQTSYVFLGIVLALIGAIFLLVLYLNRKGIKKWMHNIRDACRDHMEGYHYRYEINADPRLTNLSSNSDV
Procedure: (§1) Binding studies were performed by standard flow cytometry-based staining procedures two cell lines expressing 5T4:CHO-K1 cells (obtained from Alligator) transduced with human or cynomolgus macaque 5T4 and SKOV-3 human ovarian adenocarcinoma cells which express (human) 5T4. All labeling and washes were performed in U-bottom 96-well plates in saline buffer with 0.1% BSA and 2 mM EDTA. Cell were plated at approximately 100,000 cells per well and incubated with a range of 100 nM to 0.05 nM concentrations of test molecules in 50 μL volume/well, for 30 minutes on ice. Cells were washed three times then incubated for another 30 min on ice with fluorescently-labeled secondary polyclonal antibody, F(ab′)² goat anti-human IgG (Jackson ImmunoResearch Laboratories). The cells were then washed twice and the samples acquired in a BD LSRII or a Symphony A3 flow cytometer. The sample files were analyzed using FlowJo software; the mean fluorescence intensity (MFI-mean) or median fluorescence intensity (MFI-median) of the live population of cells in each well was calculated after gating on live cells (forward vs side scatter). Nonlinear regression analysis to determine EC₅₀ values was performed in GraphPad Prism 6® graphing and statistics software.
The differences in EC₅₀ values between constructs were more evident when binding assays were conducted on SKOV-3 cells. […]

[2] = target: T2, cynomolgus 5T4 on cells (cynomolgus macaque, UniProt Q4R8Y9 35-420); experiment: flow cytometry, CHO-K1/cynomolgus 5T4 transfectants (FIG. 7)
T2 construct: whole, on cells; also called CHO-K1/cynomolgus 5T4
T2 sequence (looked up): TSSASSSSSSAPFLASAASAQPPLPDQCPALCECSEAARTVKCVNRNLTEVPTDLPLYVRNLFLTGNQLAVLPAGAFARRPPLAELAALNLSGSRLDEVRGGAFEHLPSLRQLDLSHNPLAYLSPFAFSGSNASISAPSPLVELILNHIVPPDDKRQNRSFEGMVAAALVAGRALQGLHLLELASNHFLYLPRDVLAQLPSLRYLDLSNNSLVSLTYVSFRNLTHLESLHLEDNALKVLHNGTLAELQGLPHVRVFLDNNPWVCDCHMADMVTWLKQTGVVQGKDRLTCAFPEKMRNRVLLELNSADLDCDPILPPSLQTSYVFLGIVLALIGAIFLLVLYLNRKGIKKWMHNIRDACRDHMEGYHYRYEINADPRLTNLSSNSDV
Procedure: as §1

B1: ALG.APV-191 (bispecific antibody)
chain: EVQLLESGGGLVQPGGSLRLSCAASGFTFDYGSMYWVRQAPGKGLEWVSSISSGSGSTYYADSVKGRFTISHDNSKNTLYLQMNSLRAEDTAVYYCARSSYYGSYYSIDYWGQGTLVTVSSGGGGSGGGGSGGGGSGGGGSDIQMTQSPSSLSASVGDRVTITCRASQSISSYLNWYQQKPGKAPKLLIYAASSLHSGVPSRFSGSGSGTDFTLTISSLQPEDFATYYCQQYYDNLPTFGQGTKLEIKSSEPKSSDKTHTCPPCPAPEAAGAPSVFLFPPKPKDTLMISRTPEVTCVVVDVSHEDPEVKFNWYVDGVEVHNAKTKPREEQYNSTYRVVSVLTVLHQDWLNGKEYKCAVSNKALPAPIEKTISKAKGQPREPQVYTLPPSRDELTKNQVSLTCLVKGFYPSDIAVEWESNGQPENNYKTTPPVLDSDGSFFLYSKLTVDKSRWQQGNVFSCSVMHEALHNHYTQKSLSLSPGSGGGGSGGGGSGGGGSPSEVQLLESGGGLVQPGGSLRLSCAASGFTFSSYAMSWVRQAPGKCLEWVSAISGSGGSTYYADSVKGRFTISRDNSKNTLYLQMNSLRAEDTAVYYCARYYGGYYSAWMDYWGQGTLVTVSSGGGGSGGGGSGGGGSGGGGSDIQMTQSPSSLSASVGDRVTITCRASQSISSFLNWYQQKPGKAPKLLIYAASSLQSGVPSRFSGSGSGTDFTLTISSLQPEDFATYYCQQTYGYLHTFGCGTKLEIKS
notes: scFv-Fc-scFv (ADAPTIR) homodimer
B1: binds [1]; binds [2].
